Data as given in patent US12576025B2, “Pharmaceutical parenteral composition of dual GLP1/2 agonist” (Zealand Pharma A/S, priority 2019, dated 2026).
*1 amine or outer side, *2 acyl side, *3 side chain or, on linkers, in order; H or OH if unused. Where no end group is shown, it is not given here. Side-chain parts run from the residue outwards. [ ]: non-standard residue; d: D form. The star is where a group is joined. C18 diacid = O=C(O)CCCCCCCCCCCCCCCCC(=O)*; γGlu = O=C(O)[C@H](CCC(=O)[*:2])N[*:1]; Aib = CC(C)(N)C(=O)O

Test: Physical stability via ThT fibril formation (ASSAY IVc)
Type: physicochemical
Design: key to Aggregation (ThT), no added tonicity agent / Aggregation (ThT), 270 mM mannitol: FD = Fibrillation Detected; FND = Fibrillation Not Detected
Conditions: for Aggregation (ThT), 270 mM mannitol / Aggregation (ThT), no added tonicity agent: 96 hours
Experimental: Samples were prepared in a total volume of 0.5 mL API (herein e.g. CPD1) stock solutions were prepared by dissolving API in demineralised water at ambient temperature (typically 25° C.) to achieve 5 and 25 mg/mL API, respectively. 8 working solutions were prepared: 1) 40 mM phosphate pH 6 and 80 μM ThT; 2) 40 mM phosphate pH 6.5 and 80 μM ThT; 3) 40 mM phosphate pH 7 and 80 μM ThT; 4) 40 mM phosphate pH 8 and 80 μM ThT; 5) 40 mM phosphate pH 6, 540 mM mannitol and 80 μM ThT; 6) 40 mM phosphate pH 6.5, 540 mM mannitol and 80 μM ThT; 7) 40 mM phosphate pH 7, 540 mM mannitol and 80 μM ThT; and 8) 40 mM phosphate pH 8, 540 mM mannitol and 80 μM ThT.
200 μL of API stock was mixed with 250 μL working solution, pH was measured and adjusted to target, followed by adding demineralised water to a final volume of 500 μL. Samples were loaded in a 96-well black fluorescence plate (clear bottom) in triplicate 3×150 μL. Data were collected at fixed intervals of 10 min, each preceded by 300 s of automixing (agitation), over a period of 96 hours at 40° C. Physical stability, expressed as lag-time of fibril formation (in hours), was defined as the intersection between two linear regressions representing the initial stable phase and the growth phase.

[1] = 2 mg/mL CPD1, 20 mM phosphate pH 6, 40° C.
[2] = 2 mg/mL CPD1, 20 mM phosphate pH 6.5, 40° C.
[3] = 2 mg/mL CPD1, 20 mM phosphate pH 7, 40° C.
[4] = 2 mg/mL CPD1, 20 mM phosphate pH 8, 40° C.
[5] = 10 mg/mL CPD1, 20 mM phosphate pH 6, 40° C.
[6] = 10 mg/mL CPD1, 20 mM phosphate pH 6.5, 40° C.
[7] = 10 mg/mL CPD1, 20 mM phosphate pH 7, 40° C.
[8] = 10 mg/mL CPD1, 20 mM phosphate pH 8, 40° C.

Q: What does the source list for “H[Aib]EGSFTSELATILD[ψ]QAARDFIAWLIQHKITD (H[Aib]EGSFTSELATILDK([γGlu-C18 diacid])QAARDFIAWLIQHKITD; not fully specified; printed as H[Aib]EGSFTSELATILD[ψ]QAARDFIAWLIQHKITD; also: X16: L or D lysine) [CPD1, GLP-1/GLP-2 dual agonist]”?
A: Aggregation (ThT), 270 mM mannitol [1]: FD; Aggregation (ThT), no added tonicity agent [1]: FD; Aggregation (ThT), 270 mM mannitol [2]: FND; Aggregation (ThT), no added tonicity agent [2]: FND; Aggregation (ThT), 270 mM mannitol [3]: FND; Aggregation (ThT), no added tonicity agent [3]: FND; Aggregation (ThT), 270 mM mannitol [4]: FND; Aggregation (ThT), no added tonicity agent [4]: FND; Aggregation (ThT), 270 mM mannitol [5]: FD; Aggregation (ThT), no added tonicity agent [5]: FD; Aggregation (ThT), 270 mM mannitol [6]: FND; Aggregation (ThT), no added tonicity agent [6]: FND; Aggregation (ThT), 270 mM mannitol [7]: FND; Aggregation (ThT), no added tonicity agent [7]: FND; Aggregation (ThT), 270 mM mannitol [8]: FND; Aggregation (ThT), no added tonicity agent [8]: FND; Amyloid formation / fibrillation (2 and 10 mg/mL CPD1, pH 6): amyloid formation was observed; Amyloid formation / fibrillation (2 and 10 mg/mL CPD1, pH 7 or 8): no fibrillation was observed
